# Laboratory results reported in publication PMC12416549 (2024).
# Where a chain is given by its changes, count along the chain named. In names and notes the source's numbering stands.
# T1: TNFR1 (Homo sapiens, UniProt P19438)
# T1 chain: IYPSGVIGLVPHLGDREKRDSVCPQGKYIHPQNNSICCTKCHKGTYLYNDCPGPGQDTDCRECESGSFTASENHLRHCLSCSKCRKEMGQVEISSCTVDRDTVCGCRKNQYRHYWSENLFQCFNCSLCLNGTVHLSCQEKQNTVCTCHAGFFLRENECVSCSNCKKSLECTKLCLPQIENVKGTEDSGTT
# B1: A90H (designed binder)
# chain: SMEEEVEKAAKEYEKKKKEAIEKHLEKLKAKDKEAAERFLKELEEAAKEYAKDEAKTMSEEEAKRRAKKYKEKVLLSELSEEEQKEIKEHEEKLVRTILKYVEEAAK
# B2: S80F (designed binder)
# chain: B1 chain with S80F, H90A
# B3: K27A (designed binder)
# chain: B1 chain with K27A, H90A
# B4: L43G (designed binder)
# chain: B1 chain with L43G, H90A
# B5: H24R (designed binder)
# chain: B1 chain with H24R, H90A
# B6: E82S (designed binder)
# chain: B1 chain with E82S, H90A
# B7: L76M (designed binder)
# chain: B1 chain with L76M, H90A
# B8: E14F (designed binder)
# chain: B1 chain with E14F, H90A
# B9: A47Y (designed binder)
# chain: B1 chain with A47Y, H90A
# B10: E61L (designed binder)
# chain: B1 chain with E61L, H90A
# B11: E92P (designed binder)
# chain: B1 chain with H90A, E92P
# B12: A36G (designed binder)
# chain: B1 chain with A36G, H90A
# B13: K85A (designed binder)
# chain: B1 chain with K85A, H90A
# B14: E103P (designed binder)
# chain: B1 chain with H90A, E103P
# B15: K23E (designed binder)
# chain: B1 chain with K23E, H90A
# B16: K48N (designed binder)
# chain: B1 chain with K48N, H90A
# B17: E86A (designed binder)
# chain: B1 chain with E86A, H90A
# B18: K18Y (designed binder)
# chain: B1 chain with K18Y, H90A
# B19: E81I (designed binder)
# chain: B1 chain with E81I, H90A
# B20: I98A (designed binder)
# chain: B1 chain with H90A, I98A
# B21: E86K (designed binder)
# chain: B1 chain with E86K, H90A
# B22: M58D (designed binder)
# chain: B1 chain with M58D, H90A
# B23: E44W (designed binder)
# chain: B1 chain with E44W, H90A
# B24: E42T (designed binder)
# chain: B1 chain with E42T, H90A
# B25: K100Y (designed binder)
# chain: B1 chain with H90A, K100Y
# B26: E86D (designed binder)
# chain: B1 chain with E86D, H90A
# B27: K107N (designed binder)
# chain: B1 chain with H90A, K107N
# B28: M2W (designed binder)
# chain: B1 chain with M2W, H90A
# B29: E60S (designed binder)
# chain: B1 chain with E60S, H90A
# B30: D53C (designed binder)
# chain: B1 chain with D53C, H90A
# B31: E19H (designed binder)
# chain: B1 chain with E19H, H90A
# B32: K100G (designed binder)
# chain: B1 chain with H90A, K100G
# B33: L43Q (designed binder)
# chain: B1 chain with L43Q, H90A
# B34: E92N (designed binder)
# chain: B1 chain with H90A, E92N
# B35: A9L (designed binder)
# chain: B1 chain with A9L, H90A
# B36: A55G (designed binder)
# chain: B1 chain with A55G, H90A
# B37: T97A (designed binder)
# chain: B1 chain with H90A, T97A
# B38: A46I (designed binder)
# chain: B1 chain with A46I, H90A
# B39: E62N (designed binder)
# chain: B1 chain with E62N, H90A
# B40: A30H (designed binder)
# chain: B1 chain with A30H, H90A
# B41: V95K (designed binder)
# chain: B1 chain with H90A, V95K
# B42: D53N (designed binder)
# chain: B1 chain with D53N, H90A
# B43: K11S (designed binder)
# chain: B1 chain with K11S, H90A
# B44: E5Y (designed binder)
# chain: B1 chain with E5Y, H90A
# B45: I21C (designed binder)
# chain: B1 chain with I21C, H90A
# B46: E61G (designed binder)
# chain: B1 chain with E61G, H90A
# B47: V6M (designed binder)
# chain: B1 chain with V6M, H90A
# B48: K23M (designed binder)
# chain: B1 chain with K23M, H90A
# B49: L75C (designed binder)
# chain: B1 chain with L75C, H90A
# B50: E49I (designed binder)
# chain: B1 chain with E49I, H90A
# B51: A47R (designed binder)
# chain: B1 chain with A47R, H90A
# B52: E89A (designed binder)
# chain: B1 chain with E89A, H90A
# B53: A46E (designed binder)
# chain: B1 chain with A46E, H90A
# B54: A47M (designed binder)
# chain: B1 chain with A47M, H90A
# B55: L79D (designed binder)
# chain: B1 chain with L79D, H90A
# Biological target: T1, TNFR1
# Experiment: yeast display SC50
row,Binder,apparent Kd (screen) [nM]
1,B1,0.446
2,B2,2.73
3,B3,0.79
4,B4,1.4
5,B5,1.05
6,B6,0.49
7,B7,0.869
8,B8,29.5
9,B9,0.49
10,B10,1.69
11,B11,7.78
12,B12,0.446
13,B13,0.539
14,B14,0.49
15,B15,0.446
16,B16,0.49
17,B17,0.653
18,B18,1.05
19,B19,0.593
20,B20,1.69
21,B21,0.593
22,B22,22.2
23,B23,3.3
24,B24,9.41
25,B25,0.869
26,B26,0.49
27,B27,1.54
28,B28,0.446

row,Binder,apparent Kd (screen) [nM]
1,B29,1.54
2,B30,2.73
3,B31,0.49
4,B32,0.277
5,B33,0.446
6,B34,1.05
7,B35,0.956
8,B36,8.56
9,B37,1.86
10,B38,3
11,B39,0.49
12,B40,0.869
13,B41,3.63
14,B42,0.79
15,B43,0.49
16,B44,1.54
17,B45,0.49
18,B46,1.54
19,B47,2.73
20,B48,0.869
21,B49,0.49
22,B50,20.2
23,B51,0.49
24,B52,1.4
25,B53,5.84
26,B54,0.446
27,B55,16.7
